# Data as given in publication PMC9482650, “Quantitative fragmentomics allow affinity mapping of interactomes” (Nature Communications, 2022).
# T1: ARHGAP21, Q5T5U3
# T1 sequence (Q5T5U3 45-169, limits assumed, looked up): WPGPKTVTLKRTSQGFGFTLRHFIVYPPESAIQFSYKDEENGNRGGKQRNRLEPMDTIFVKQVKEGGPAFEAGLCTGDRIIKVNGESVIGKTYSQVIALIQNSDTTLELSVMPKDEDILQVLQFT
# T2: PDZD7_3, Q9H5P4
# T2 sequence (Q9H5P4 857-944, limits assumed, looked up): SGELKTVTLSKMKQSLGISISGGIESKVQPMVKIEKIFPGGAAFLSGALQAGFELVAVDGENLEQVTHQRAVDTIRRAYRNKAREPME
# T3: NHERF3_3, Q5T2W1
# T3 sequence (Q5T2W1 238-333, limits assumed, looked up): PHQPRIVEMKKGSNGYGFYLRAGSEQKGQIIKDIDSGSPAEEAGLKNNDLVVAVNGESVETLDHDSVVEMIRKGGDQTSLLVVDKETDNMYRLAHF
# T4: APBA2_2, Q99767
# T4 sequence (Q99767 654-744, limits assumed, looked up): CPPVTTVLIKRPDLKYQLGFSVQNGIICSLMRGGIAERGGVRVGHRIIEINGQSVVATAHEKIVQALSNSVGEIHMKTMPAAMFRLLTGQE
# T5: LRRC7, Q96NW7
# T5 sequence (Q96NW7 1440-1537, limits assumed, looked up): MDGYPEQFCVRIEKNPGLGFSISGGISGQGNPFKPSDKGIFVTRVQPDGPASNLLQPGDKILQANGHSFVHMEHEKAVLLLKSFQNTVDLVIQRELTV
# T6: NHERF3_4, Q5T2W1
# T6 sequence (Q5T2W1 373-468, limits assumed, looked up): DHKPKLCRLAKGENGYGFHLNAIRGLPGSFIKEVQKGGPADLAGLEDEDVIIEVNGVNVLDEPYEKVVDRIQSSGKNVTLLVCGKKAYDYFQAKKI
# T7: FRMPD1, Q5SYB0
# T7 sequence (Q5SYB0 52-145, limits assumed, looked up): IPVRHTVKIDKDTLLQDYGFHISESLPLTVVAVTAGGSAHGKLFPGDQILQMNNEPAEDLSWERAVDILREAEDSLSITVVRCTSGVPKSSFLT
# T8: TJP3_3, O95049
# T8 sequence (O95049 375-456, limits assumed, looked up): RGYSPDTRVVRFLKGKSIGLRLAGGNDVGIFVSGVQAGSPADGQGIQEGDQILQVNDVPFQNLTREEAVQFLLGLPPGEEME
# T9: HTRA3, P83110
# T9 sequence (P83110 354-453, limits assumed, looked up): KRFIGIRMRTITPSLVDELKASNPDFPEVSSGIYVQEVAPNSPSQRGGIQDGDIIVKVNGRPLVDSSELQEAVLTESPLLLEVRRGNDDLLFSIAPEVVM
# T10: APBA2_1, Q99767
# T10 sequence (Q99767 563-664, limits assumed, looked up): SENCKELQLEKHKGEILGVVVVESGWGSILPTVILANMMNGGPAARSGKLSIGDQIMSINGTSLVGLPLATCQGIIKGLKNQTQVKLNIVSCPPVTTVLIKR
# T11: PDZD2_2, O15018
# T11 sequence (O15018 329-429, limits assumed, looked up): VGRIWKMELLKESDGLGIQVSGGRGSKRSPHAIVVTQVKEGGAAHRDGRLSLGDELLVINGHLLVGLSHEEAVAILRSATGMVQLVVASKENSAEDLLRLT
# T12: LNX2_3, Q8N448
# T12 sequence (Q8N448 463-564, limits assumed, looked up): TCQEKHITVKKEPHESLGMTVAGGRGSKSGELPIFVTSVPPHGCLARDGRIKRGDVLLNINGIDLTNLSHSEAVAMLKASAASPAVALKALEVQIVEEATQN
# T13: GRIP1_3, Q9Y3R0
# T13 sequence (Q9Y3R0 247-346, limits assumed, looked up): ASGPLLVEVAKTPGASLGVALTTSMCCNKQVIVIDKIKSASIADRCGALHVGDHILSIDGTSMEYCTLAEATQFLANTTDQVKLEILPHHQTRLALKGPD
# B1: SLC15A2, Q16348 (peptide)
# chain: IKLETKKTKL
# B2: GUCY1A2, P33402 (peptide)
# chain: GTMFLRETSL
# Molecular target: T1, ARHGAP21, Q5T5U3
# Assay: holdup assay
# Design: key: below the threshold = too weak to quantify, mostly under pKd 3.1 to 4
# Details: plain residues with an end cap or a label only (N-terminal biotin on a linker: ado-ado)
row,pKd,Binder
1,3.98,B1
2,4.7,B2

# Molecular target: DLG2_3, Q15700
# Assay: holdup assay
# Design: key: below the threshold = too weak to quantify, mostly under pKd 3.1 to 4
# Details: plain residues with an end cap or a label only (N-terminal biotin on a linker: ado-ado)
row,pKd,Binder
1,below the threshold,B1
2,4.79,B2

# Molecular target: TJP1_3, Q07157
# Sequence (Q07157 416-512): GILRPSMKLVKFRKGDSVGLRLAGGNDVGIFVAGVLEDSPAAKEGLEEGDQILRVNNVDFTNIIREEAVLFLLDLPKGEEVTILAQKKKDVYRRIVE
# Assay: holdup assay
# Design: key: below the threshold = too weak to quantify, mostly under pKd 3.1 to 4
# Details: plain residues with an end cap or a label only (N-terminal biotin on a linker: ado-ado)
row,pKd,Binder
1,3.54,B1
2,below the threshold,B2

# Molecular target: Inadl_9, Q8NI35
# Sequence (Q8NI35 1530-1615): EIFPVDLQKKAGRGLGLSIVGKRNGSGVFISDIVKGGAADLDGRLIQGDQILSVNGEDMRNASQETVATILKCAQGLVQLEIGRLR
# Assay: holdup assay
# Design: key: below the threshold = too weak to quantify, mostly under pKd 3.1 to 4
# Details: plain residues with an end cap or a label only (N-terminal biotin on a linker: ado-ado)
row,pKd,Binder
1,below the threshold,B1
2,below the threshold,B2

# Molecular target: Inadl_5, Q8NI35
# Sequence (Q8NI35 673-780): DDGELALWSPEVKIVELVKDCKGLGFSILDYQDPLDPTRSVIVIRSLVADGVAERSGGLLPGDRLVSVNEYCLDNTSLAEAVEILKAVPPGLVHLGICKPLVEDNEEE
# Assay: holdup assay
# Design: key: below the threshold = too weak to quantify, mostly under pKd 3.1 to 4
# Details: plain residues with an end cap or a label only (N-terminal biotin on a linker: ado-ado)
row,pKd,Binder
1,3.48,B1
2,below the threshold,B2

# Molecular target: IL16_3, Q14005
# Sequence (Q14005 1107-1207): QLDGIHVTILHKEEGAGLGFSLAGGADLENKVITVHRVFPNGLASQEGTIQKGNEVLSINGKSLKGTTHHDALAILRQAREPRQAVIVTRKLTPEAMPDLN
# Assay: holdup assay
# Design: key: below the threshold = too weak to quantify, mostly under pKd 3.1 to 4
# Details: plain residues with an end cap or a label only (N-terminal biotin on a linker: ado-ado)
row,pKd,Binder
1,below the threshold,B1
2,below the threshold,B2

# Molecular target: T2, PDZD7_3, Q9H5P4
# Assay: holdup assay
# Design: key: below the threshold = too weak to quantify, mostly under pKd 3.1 to 4
# Details: plain residues with an end cap or a label only (N-terminal biotin on a linker: ado-ado)
row,pKd,Binder
1,4.75,B1
2,4.97,B2

# Molecular target: Inadl_3, Q8NI35
# Sequence (Q8NI35 359-469): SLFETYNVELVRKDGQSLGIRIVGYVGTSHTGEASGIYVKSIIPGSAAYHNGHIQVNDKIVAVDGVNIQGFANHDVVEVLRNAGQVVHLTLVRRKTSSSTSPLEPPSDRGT
# Assay: holdup assay
# Design: key: below the threshold = too weak to quantify, mostly under pKd 3.1 to 4
# Details: plain residues with an end cap or a label only (N-terminal biotin on a linker: ado-ado)
row,pKd,Binder
1,below the threshold,B1
2,below the threshold,B2

# Molecular target: T3, NHERF3_3, Q5T2W1
# Assay: holdup assay
# Design: key: below the threshold = too weak to quantify, mostly under pKd 3.1 to 4
# Details: plain residues with an end cap or a label only (N-terminal biotin on a linker: ado-ado)
row,pKd,Binder
1,4.67,B1
2,below the threshold,B2

# Molecular target: T4, APBA2_2, Q99767
# Assay: holdup assay
# Design: key: below the threshold = too weak to quantify, mostly under pKd 3.1 to 4
# Details: plain residues with an end cap or a label only (N-terminal biotin on a linker: ado-ado)
row,pKd,Binder
1,3.52,B1
2,below the threshold,B2

# Molecular target: GOPC, Q9HD26
# Assay: holdup assay
# Design: key: below the threshold = too weak to quantify, mostly under pKd 3.1 to 4
# Details: plain residues with an end cap or a label only (N-terminal biotin on a linker: ado-ado)
row,pKd,Binder
1,4.29,B1
2,4.43,B2

# Molecular target: T5, LRRC7, Q96NW7
# Assay: holdup assay
# Design: key: below the threshold = too weak to quantify, mostly under pKd 3.1 to 4
# Details: plain residues with an end cap or a label only (N-terminal biotin on a linker: ado-ado)
row,pKd,Binder
1,below the threshold,B1
2,4.33,B2

# Molecular target: T6, NHERF3_4, Q5T2W1
# Assay: holdup assay
# Design: key: below the threshold = too weak to quantify, mostly under pKd 3.1 to 4
# Details: plain residues with an end cap or a label only (N-terminal biotin on a linker: ado-ado)
row,pKd,Binder
1,4.77,B1
2,4.38,B2

# Molecular target: T7, FRMPD1, Q5SYB0
# Assay: holdup assay
# Design: key: below the threshold = too weak to quantify, mostly under pKd 3.1 to 4
# Details: plain residues with an end cap or a label only (N-terminal biotin on a linker: ado-ado)
row,pKd,Binder
1,below the threshold,B1
2,below the threshold,B2

# Molecular target: T8, TJP3_3, O95049
# Assay: holdup assay
# Design: key: below the threshold = too weak to quantify, mostly under pKd 3.1 to 4
# Details: plain residues with an end cap or a label only (N-terminal biotin on a linker: ado-ado)
row,pKd,Binder
1,below the threshold,B1
2,below the threshold,B2

# Molecular target: MAST1, Q9Y2H9
# Sequence (Q9Y2H9 962-1065): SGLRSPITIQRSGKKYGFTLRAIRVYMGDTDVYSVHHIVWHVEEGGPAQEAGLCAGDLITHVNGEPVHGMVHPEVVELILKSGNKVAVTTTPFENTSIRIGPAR
# Assay: holdup assay
# Design: key: below the threshold = too weak to quantify, mostly under pKd 3.1 to 4
# Details: plain residues with an end cap or a label only (N-terminal biotin on a linker: ado-ado)
row,pKd,Binder
1,4.86,B1
2,5.08,B2

# Molecular target: T9, HTRA3, P83110
# Assay: holdup assay
# Design: key: below the threshold = too weak to quantify, mostly under pKd 3.1 to 4
# Details: plain residues with an end cap or a label only (N-terminal biotin on a linker: ado-ado)
row,pKd,Binder
1,below the threshold,B1
2,below the threshold,B2

# Molecular target: T10, APBA2_1, Q99767
# Assay: holdup assay
# Design: key: below the threshold = too weak to quantify, mostly under pKd 3.1 to 4
# Details: plain residues with an end cap or a label only (N-terminal biotin on a linker: ado-ado)
row,pKd,Binder
1,3.5,B1
2,below the threshold,B2

# Molecular target: FRMPD3, Q5JV73
# Sequence (Q5JV73 12-100): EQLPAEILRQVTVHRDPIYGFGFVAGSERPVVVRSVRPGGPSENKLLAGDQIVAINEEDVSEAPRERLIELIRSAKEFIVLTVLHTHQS
# Assay: holdup assay
# Design: key: below the threshold = too weak to quantify, mostly under pKd 3.1 to 4
# Details: plain residues with an end cap or a label only (N-terminal biotin on a linker: ado-ado)
row,pKd,Binder
1,below the threshold,B1
2,below the threshold,B2

# Molecular target: T11, PDZD2_2, O15018
# Assay: holdup assay
# Design: key: below the threshold = too weak to quantify, mostly under pKd 3.1 to 4
# Details: plain residues with an end cap or a label only (N-terminal biotin on a linker: ado-ado)
row,pKd,Binder
1,below the threshold,B1
2,below the threshold,B2

# Molecular target: T12, LNX2_3, Q8N448
# Assay: holdup assay
# Design: key: below the threshold = too weak to quantify, mostly under pKd 3.1 to 4
# Details: plain residues with an end cap or a label only (N-terminal biotin on a linker: ado-ado)
row,pKd,Binder
1,below the threshold,B1
2,below the threshold,B2

# Molecular target: LNX1_1, Q8TBB1
# Sequence (Q8TBB1 261-371): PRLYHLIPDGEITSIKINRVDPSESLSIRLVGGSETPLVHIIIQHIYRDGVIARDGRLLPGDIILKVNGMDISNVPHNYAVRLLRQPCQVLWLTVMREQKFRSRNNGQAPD
# Assay: holdup assay
# Design: key: below the threshold = too weak to quantify, mostly under pKd 3.1 to 4
# Details: plain residues with an end cap or a label only (N-terminal biotin on a linker: ado-ado)
row,pKd,Binder
1,3.79,B1
2,3.73,B2

# Molecular target: DLG1_1, Q12959
# Assay: holdup assay
# Design: key: below the threshold = too weak to quantify, mostly under pKd 3.1 to 4
# Details: plain residues with an end cap or a label only (N-terminal biotin on a linker: ado-ado)
row,pKd,Binder
1,below the threshold,B1
2,4.23,B2

# Molecular target: T13, GRIP1_3, Q9Y3R0
# Assay: holdup assay
# Design: key: below the threshold = too weak to quantify, mostly under pKd 3.1 to 4
# Details: plain residues with an end cap or a label only (N-terminal biotin on a linker: ado-ado)
row,pKd,Binder
1,below the threshold,B1
2,below the threshold,B2

# Molecular target: GRIP2_7, Q9C0E4
# Sequence (Q9C0E4 934-1023): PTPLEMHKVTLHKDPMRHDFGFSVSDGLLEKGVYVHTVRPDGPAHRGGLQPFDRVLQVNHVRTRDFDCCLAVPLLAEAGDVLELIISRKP
# Assay: holdup assay
# Design: key: below the threshold = too weak to quantify, mostly under pKd 3.1 to 4
# Details: plain residues with an end cap or a label only (N-terminal biotin on a linker: ado-ado)
row,pKd,Binder
1,below the threshold,B1
2,3.84,B2
